In patent US11906524B2, “Urea biosensors and uses thereof” (Duke University, priority 2015, dated 2024):
Where a chain is given by its changes, count along the chain named. Numbers in names are those of the source.

B1: csUBP7 V158C: csUBP7 158C cysteine mutant (SEQ ID NO: 38), tested as Acrylodan and Badan conjugates (conjugate)
chain: MSSSESEKEKSEETIKVGILHSLSGTMSISEVSLKDAELMAIEEINNNGGVLGKKLEPIVEDGASDWPTFAEKAKKLLQKDKVAVIFGAWTSASRKAVLPVVEENNGLLFYPVQYEGLESSPNIFYMGAAPNQQIVPAVKWLFDNGKKRFYLLGSDYCFPRTANKIIKAYLKYLGGVVVGEEYTPLGHTDYSSVINKIKAAKPDVVFNTLNGDSNVAFFKQLKDAGIDANTLPVMSVSIAEEEIKGIGPEYLKGHLVTWNYFQSVDTPENKEFVEKYKKKYGEDRVTDDPIEAAYIGVYLWAKAVEKAGSTDVDKVREAAKGIEFNAPEGPVKIDGDNQHLYKTVRIGEILENGQIRELWKTNKPVKPDPYLKGYEWAQGLSEQGGSHHHHHH
modifications: Acrylodan or Badan conjugate; csUBP7_158C (158C substitution mutant with signal peptide replaced with M and a GGSHHHHHH at C-terminus, and also comprising a C89A substitution)
B2: csUBP7 Y111C: csUBP7 111C cysteine mutant (SEQ ID NO: 33), tested as Acrylodan and Badan conjugates (conjugate)
chain: B1 chain with Y111C, C158V
modifications: Acrylodan or Badan conjugate; csUBP7_111C (111C substitution mutant with signal peptide replaced with M and a GGSHHHHHH at C-terminus, and also comprising a C89A substitution)
B3: csUBP7 S65C: csUBP7 65C cysteine mutant (SEQ ID NO: 26), tested as Acrylodan and Badan conjugates (conjugate)
chain: B1 chain with S65C, C158V
modifications: Acrylodan or Badan conjugate; csUBP7_65C (65C substitution mutant with signal peptide replaced with M and a GGSHHHHHH at C-terminus, and also comprising a C89A substitution)
B4: csUBP7 F159C: csUBP7 159C cysteine mutant (SEQ ID NO: 39), tested as Acrylodan and Badan conjugates (conjugate)
chain: B1 chain with C158V, F159C
modifications: Acrylodan or Badan conjugate; csUBP7_159C (159C substitution mutant with signal peptide replaced with M and a GGSHHHHHH at C-terminus, and also comprising a C89A substitution)
B5: csUBP7 S238C: csUBP7 238C cysteine mutant (SEQ ID NO: 42), tested as Acrylodan and Badan conjugates (conjugate)
chain: B1 chain with C158V, S238C
modifications: Acrylodan or Badan conjugate; csUBP7_238C (238C substitution mutant with signal peptide replaced with M and a GGSHHHHHH at C-terminus, and also comprising a C89A substitution)
B6: csUBP7 A93C: csUBP7 93C cysteine mutant (SEQ ID NO: 31), tested as Acrylodan and Badan conjugates (conjugate)
chain: B1 chain with A93C, C158V
modifications: Acrylodan or Badan conjugate; csUBP7_93C (93C substitution mutant with signal peptide replaced with M and a GGSHHHHHH at C-terminus, and also comprising a C89A substitution)
B7: csUBP7 Q114C: csUBP7 114C cysteine mutant (SEQ ID NO: 34), tested as Acrylodan and Badan conjugates (conjugate)
chain: B1 chain with Q114C, C158V
modifications: Acrylodan or Badan conjugate; csUBP7_114C (114C substitution mutant with signal peptide replaced with M and a GGSHHHHHH at C-terminus, and also comprising a C89A substitution)
B8: csUBP7 Y115C: csUBP7 115C cysteine mutant (SEQ ID NO: 35), tested as Acrylodan and Badan conjugates (conjugate)
chain: B1 chain with Y115C, C158V
modifications: Acrylodan or Badan conjugate; csUBP7_115C (115C substitution mutant with signal peptide replaced with M and a GGSHHHHHH at C-terminus, and also comprising a C89A substitution)
B9: csUBP7 S92C: csUBP7 92C cysteine mutant (SEQ ID NO: 30), tested as Acrylodan and Badan conjugates (conjugate)
chain: B1 chain with S92C, C158V
modifications: Acrylodan or Badan conjugate; csUBP7_92C (92C substitution mutant with signal peptide replaced with M and a GGSHHHHHH at C-terminus, and also comprising a C89A substitution)
B10: V113A: csUBP7 186C, 113A mutant (SEQ ID NO: 69), tested as Acrylodan conjugate (conjugate)
chain: B1 chain with V113A, C158V, L186C
modifications: Acrylodan conjugate; csUBP7_186C.15 (186C, 113A substitution mutant, signal peptide replaced with M and a GGSHHHHHH at C-terminus, and also comprising a C89A substitution)
B11: V113Q: csUBP7 186C, 113Q mutant (SEQ ID NO: 72), tested as Acrylodan conjugate (conjugate)
chain: B1 chain with V113Q, C158V, L186C
modifications: Acrylodan conjugate; csUBP7_186C.18 (186C, 113Q substitution mutant, signal peptide replaced with M and a GGSHHHHHH at C-terminus, and also comprising a C89A substitution)
B12: V113T: csUBP7 186C, 113T mutant (SEQ ID NO: 70), tested as Acrylodan conjugate (conjugate)
chain: B1 chain with V113T, C158V, L186C
modifications: Acrylodan conjugate; csUBP7_186C.16 (186C, 113T substitution mutant, signal peptide replaced with M and a GGSHHHHHH at C-terminus, and also comprising a C89A substitution)
B13: S92A: csUBP7 186C, S92A mutant (SEQ ID NO: 65), tested as Acrylodan conjugate (conjugate)
chain: B1 chain with S92A, C158V, L186C
modifications: Acrylodan conjugate; csUBP7_186C.11 (186C, S92A substitution mutant, signal peptide replaced with M and a GGSHHHHHH at C-terminus, and also comprising a C89A substitution)

Assay: Temperature- and urea-dependent fluorescence landscapes of fluorescent conjugates (Roche LightCycler)
Format: binding
Set-up: key: y, yes; n, no
Details: Acrylodan conjugate; fluorescent response to urea
Description: We constructed 20 single cysteine mutants in csUBP7, exploring 7 endosteric, 12 peristeric, and 1 allosteric position (FIG. 9). At each position we attached the Prodan-derived fluorophores Acrylodan and Badan, which differ by one methylene group in their thiol-reactive linker. The fluorescent responses of these conjugates was determined initially as a function of urea concentration and temperature (FIG. 10). […] The ligand dependence of the emission spectra shapes was determined for these conjugates (Table 8).
Determination of temperature- and ligand-dependent fluorescence landscapes. […] Urea concentrations were varied from 0-4.8 M in 20 mM KCl, 20 mM MOPS (pH 7.4). […] Temperatures were advanced in 1K steps.
(§1) Ratiometric analysis of urea binding. […] 2
(§2) For a single urea-binding site, the fractional saturation is given by
(§3) [formula] where [L] is the ligand (urea) concentration and Kd the dissociation constant, ^trueKd for ytrue.
To obtain the temperature dependence of the binding reaction, the Kd values of all the individually determined isotherms were fit the Gibbs-Hemholtz equation (Layton and Hellinga, 2010, Biochemistry, 49, 10831-41):
[formula] where ΔGb^•(T) is the standard free energy of binding at 1 M ligand at temperature T,
[formula] Δ^refHb^• and Δ^refSb^• the molar enthalpy and entropy of binding, respectively, at the reference temperature, Tref, and ΔCp,b the heat capacity of the binding reaction.

Q: For B1, which Response is on record?
A: The Response was “n”.

Q: Which Response does the source give for B2 here?
A: The Response was “n”.

Q: Which Response does the source give for B3 here?
A: Its Response is “n”.

Q: Which Response does the source give for B4 here?
A: Its Response is “n”.

Q: Which Response does the source give for B5 here?
A: The Response was “n”.

Q: For B6, which Response is on record?
A: Its Response is “y”.

Q: With B7 as the molecule, how does the Response read?
A: Its Response is “n”.

Q: With B8 as the molecule, how does the Response read?
A: Its Response is “n”.

Q: With B9 as the molecule, how does the Response read?
A: The Response was “n”.

Same assay, conditions: Badan conjugate; fluorescent response to urea

Q: For B1, which Response is on record?
A: Its Response is “n”.

Q: Which Response does the source give for B2 here?
A: Its Response is “n”.

Q: Which Response does the source give for B3 here?
A: Its Response is “y”.

Q: Which Response does the source give for B4 here?
A: The Response was “n”.

Q: With B5 as the molecule, how does the Response read?
A: The Response was “n”.

Q: With B6 as the molecule, how does the Response read?
A: The Response was “n”.

Q: Which Response does the source give for B7 here?
A: Its Response is “n”.

Q: For B8, which Response is on record?
A: Its Response is “n”.

Q: For B9, which Response is on record?
A: Its Response is “n”.

Assay: Urea titration of emission intensity spectra (Nanodrop3300) with ratiometric analysis, singly labeled conjugates
Format: binding
Details: mutation in the csUBP7 186C·Acrylodan conjugate
Source text: Determination of emission intensity spectra.
as §1, §2, §3
[formula] where ^appIλ2 and ^satIλ2 are the emission intensities of the monochromatic signal at wavelength λ2 of the ligand-free and ligand-bound protein, respectively.

Q: With B10 as the molecule, how does the “effect of mutation on urea affinity” value read?
A: The value was “weakens binding significantly”.

Q: Which “fold stronger affinity than either V113N or V113H” value does the source give for B11 here?
A: Its value is 10 fold.

Q: For B12, which “effect of mutation on urea affinity” value is on record?
A: The value was “only a small effect”.

Q: With B13 as the molecule, how does the “effect of mutation on urea affinity” value read?
A: Its value is “abolishes binding”.
